Assays:
ATP production = details: 1 mM fuel; cascade with ADH, formDH and FDH; polyphosphate; 200 μL
Method: Exemplary cascades were tested with ADH and formDH. […] The cascade was tested in 200 μL reaction volumes.

human NADK = target: T1, human NADK (Homo sapiens, UniProt O95544); details: cited from earlier work
T1 sequence (O95544 1-446): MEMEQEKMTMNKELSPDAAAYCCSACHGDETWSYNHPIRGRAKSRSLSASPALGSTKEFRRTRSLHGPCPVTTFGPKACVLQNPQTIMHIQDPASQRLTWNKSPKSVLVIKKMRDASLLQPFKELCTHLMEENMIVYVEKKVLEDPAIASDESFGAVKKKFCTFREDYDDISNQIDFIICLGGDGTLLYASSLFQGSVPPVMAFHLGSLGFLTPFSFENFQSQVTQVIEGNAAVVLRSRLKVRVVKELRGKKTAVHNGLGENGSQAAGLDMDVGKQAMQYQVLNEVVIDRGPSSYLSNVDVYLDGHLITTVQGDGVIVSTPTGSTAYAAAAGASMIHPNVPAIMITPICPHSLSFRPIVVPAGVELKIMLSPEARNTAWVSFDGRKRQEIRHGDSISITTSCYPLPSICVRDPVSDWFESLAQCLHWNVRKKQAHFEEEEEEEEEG

[1] = target: T2, B. subtilis polyphosphate NAD+ kinase (PPNK), recombinant, 6x-histidine tag (Bacillus subtilis, UniProt O31612); assay: Kinetics of polyphosphate NAD+ kinase (PPNK), coupled to TPNOX, absorbance at 340 nm; details: 26° C., pH 7.8, 10 mM MgCl2, random bi-bi sequential
T2 sequence (O31612 1-266): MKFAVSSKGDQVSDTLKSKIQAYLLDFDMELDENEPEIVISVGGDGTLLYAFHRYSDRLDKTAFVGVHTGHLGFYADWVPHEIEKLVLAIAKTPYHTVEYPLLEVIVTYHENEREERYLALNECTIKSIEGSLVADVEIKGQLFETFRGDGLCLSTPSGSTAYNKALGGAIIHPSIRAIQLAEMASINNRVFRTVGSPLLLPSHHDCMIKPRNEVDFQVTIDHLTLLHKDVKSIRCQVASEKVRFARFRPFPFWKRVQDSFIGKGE
Method: (§4) For overexpression, the enzymes were transformed into BL21(DE3) E. coli cells (New England Biolabs). […] Overexpression of the enzymes was induced by adding isopropyl-β-thiogalactopyranoside (IPTG) to a final concentration of 1 mM at an optical density (OD) of 0.6 at 600 nm. After 3 h of induction, the cells were harvested and sonicated in wash buffer A for TPNOX (10 mM imidazole, 300 mM NaCl, and 20 mM Tris-HCl pH 7.4) and wash buffer B for all other enzymes (40 mM imidazole, 300 mM NaCl, and 20 mM Tris-HCl pH 7.4). The cells were centrifuged at 7000 rpm for 1 h and 4° C. The protein was purified using a nickel-nitrilotriacetic acid (Ni-NTA) column with continuous elution up to 500 mM imidazole.
(§5) The reaction was carried out at 26° C. in a solution containing 10 mM Tris-HCl, pH 7.8, 10 mM MgCl2, and 0.02 μg/μL TPNOX. […] A molar absorption coefficient of 6.22×10^4 mol^−1 cm^−1 was used to convert absorption to molar concentration of NADPH.

[2] = substrate: Nc1ncnc2c1ncn2[C@@H]1O[C@H](COP(=O)(O)OP(=O)(O)O)[C@@H](O)[C@H]1O; assay: purified protein, by the assay type; assay type: biochemical, pigeon; details: other: reverse direction; random bi-bi sequential mechanism
Source text: The ATP-producing NADK has been predominantly studied in the forward direction (consuming ATP) since the observed isoforms, such as the human NADK, are irreversible. Without wishing to be bound by theory, one form, pigeon NADK, follows a random bi-bi sequential mechanism and the kinetic parameters for the reverse direction are found in Table I.
Synthetic pigeon, duck, and cat NADK genes and a cloned human NADK gene all with C-terminal 6×-histidine tags were expressed E. coli and purified to apparent homogencity. The pigeon enzyme shares 85% sequence homology with the human enzyme, while the duck and pigeon enzymes are 96% sequence homology. The cat enzyme shares a 91% sequence homology to the human enzyme.
Referring now to FIGS. 3A-3B, initial rate kinetic experiments were performed with pigeon, duck, cat, and human NADK enzymes in both the forward and reverse directions. […] In FIG. 3B, the production of ATP was detected in a coupled reaction with firefly luciferase where ATP was converted to light, the relative luminescence (RLU) was monitored, and a standard curve was used to calculate the ATP concentration. […]
ATP production was measured using firefly luciferase. […] The luminescence was measured in a plate reader in 26° C. in a solution containing 10 mM Tris-HCl, pH 7.8, and 10 mM MgCl2. The ATP produced was calculated from luminescence using a calibration plot. […]

[3] = substrate: NC(=O)c1ccc[n+]([C@@H]2O[C@H](COP(=O)([O-])OP(=O)(O)OC[C@H]3O[C@@H](n4cnc5c(N)ncnc54)[C@H](OP(=O)(O)O)[C@@H]3O)[C@@H](O)[C@H]2O)c1; assay: purified protein, by the assay type; details: other: reverse direction; random bi-bi sequential mechanism
[4] = substrate: O=CO; assay: Kinetics of formate dehydrogenase (FDH); assay type: biochemical, C. boidinii; details: other: abbreviated sequential mechanism; pH 7.4; 37.0 °C
Source text: (§1) The enzymes involved in the cascade were characterized. Kinetic parameters for the NADH-dependent dehydrogenases, PPNKs, NADPH oxidases, and NADKs included in the exemplary embodiments of the present disclosure are shown in Table I below.
(§2) The FDH from C. boidinii was expressed recombinantly in a pEt28a plasmid and purified according to the materials and methods.
(§3) For overexpression, the enzymes were transformed into BL21(DE3) E. coli cells (New England Biolabs). Overnight cultures of BL21(DE3) E. coli cells harboring the DNA in pET20b plasmids and pET28a plasmid for FDH and sfGFP, respectively, were transferred into 50 mL of LB medium with 100 μg/mL ampicillin at 37° C. Overexpression of the enzymes was induced by adding isopropyl-β-thiogalactopyranoside (IPTG) to a final concentration of 1 mM at an optical density (OD) of 0.6 at 600 nm. After 3 h of induction, the cells were harvested and sonicated in wash buffer A for TPNOX (10 mM imidazole, 300 mM NaCl, and 20 mM Tris-HCl pH 7.4) and wash buffer B for all other enzymes (40 mM imidazole, 300 mM NaCl, and 20 mM Tris-HCl pH 7.4). The cells were centrifuged at 7000 rpm for 1 h and 4° C. The protein was purified using a nickel-nitrilotriacetic acid (Ni-NTA) column with continuous elution up to 500 mM imidazole.

[5] = substrate: NC(=O)c1ccc[n+]([C@@H]2O[C@H](COP(=O)([O-])OP(=O)(O)OC[C@H]3O[C@@H](n4cnc5c(N)ncnc54)[C@H](O)[C@@H]3O)[C@@H](O)[C@H]2O)c1; assay: Kinetics of formate dehydrogenase (FDH); assay type: biochemical, C. boidinii; details: other: abbreviated sequential mechanism; pH 7.4; 37.0 °C
Source text: as §1, §2, §3

[6] = substrate: Nc1ncnc2c1ncn2[C@@H]1O[C@H](COP(=O)(O)OP(=O)(O)OP(=O)(O)O)[C@@H](O)[C@H]1O; assay: purified protein, by the assay type; details: other: cosubstrate NADH, 26° C., pH 7.8, 10 mM MgCl2, random bi-bi sequential
Method: as §4, §5

[7] = substrate: NC(=O)C1=CN([C@@H]2O[C@H](COP(=O)(O)OP(=O)(O)OC[C@H]3O[C@@H](n4cnc5c(N)ncnc54)[C@H](O)[C@@H]3O)[C@@H](O)[C@H]2O)C=CC1; assay: purified protein, by the assay type; details: 26° C., pH 7.8, 10 mM MgCl2, random bi-bi sequential, pH 7.8, 26.0 °C
NADK = assay: Initial rate kinetic experiments with pigeon, duck, cat and human NADK enzymes, forward and reverse directions; assay type: biochemical; details: reverse direction (NADP^+ + ADP to NAD^+ + ATP); recombinant enzyme
Method: Recombinantly-expressed NADKs were explored for their reversible activities. It was hypothesized that the reversibility of the pigeon enzyme would enable compensation for the high picolinic acid […] (PC) activity present in pigeon livers, which inhibits NAD^+ biosynthesis from dietary tryptophan. […] It was determined that human NADK has an affinity for NAD^+ that is about 600 times higher than the pigeon, duck and cat isoforms. Without wishing to be bound by theory, NAD^+ serves as a product inhibitor for the reverse human NADK activity, which accounts for the observed irreversible behavior. While each of the NADKs explored were “reversible,” the reverse activity of the human enzyme is impeded via product inhibition. […]
Referring now to FIGS. 3A-3B, initial rate kinetic experiments were performed with pigeon, duck, cat, and human NADK enzymes in both the forward and reverse directions. […] In FIG. 3B, the production of ATP was detected in a coupled reaction with firefly luciferase where ATP was converted to light, the relative luminescence (RLU) was monitored, and a standard curve was used to calculate the ATP concentration.

**Q.** For `O=CO` [formate], which ATP production rate (ATP production) is on record?
**A.** 1.3×10^7 total RLU/h

**Q.** With `NC(=O)C1=CN([C@@H]2O[C@H](COP(=O)(O)OP(=O)(O)OC[C@H]3O[C@@H](n4cnc5c(N)ncnc54)[C@H](OP(=O)(O)O)[C@@H]3O)[C@@H](O)[C@H]2O)C=CC1` [NADPH] as the molecule, how does the “inhibition of human NADK” value (human NADK) read?
**A.** inhibited

**Q.** For `NC(=O)C1=CN([C@@H]2O[C@H](COP(=O)(O)OP(=O)(O)OC[C@H]3O[C@@H](n4cnc5c(N)ncnc54)[C@H](O)[C@@H]3O)[C@@H](O)[C@H]2O)C=CC1` [NADH], which kcat ([1]; substrates NADH and ATP) is on record?
**A.** (2.6 ± 1.9) × 10^2 min^−1

**Q.** And the kcat ([1]; substrates NADH and poly(P) (sodium metaphosphate))?
**A.** (5.6 ± 2.6) × 10^2 min^−1

**Q.** What about the “inhibition of human NADK” value (human NADK) of the same molecule?
**A.** inhibited

**Q.** Which ATP production rate (ATP production) does the source give for `CO` [methanol] here?
**A.** 7.2×10^7 total RLU/h

**Q.** Which “inhibition of human NADK” value (human NADK) does the source give for `NC(=O)c1ccc[n+]([C@@H]2O[C@H](COP(=O)([O-])OP(=O)(O)OC[C@H]3O[C@@H](n4cnc5c(N)ncnc54)[C@H](OP(=O)(O)O)[C@@H]3O)[C@@H](O)[C@H]2O)c1` [NADP^+] here?
**A.** not

B1: pigeon NADK (ATP-NAD+ kinase), recombinant, C-terminal 6x-histidine tag (Columba livia) (protein)
chain: MEMNRDKLCPGKADVSSDSAYHCSTCHDDEEWSNTSRGRAKSRSLSASPALGSTKEFRRTRSLHGPCPVTTFGPKACMLQNPKTIMHIQDPASQRLTWNKPPKSVLVIKKIRDASLLQPFKELCVYLTEENNMIVYVEKKVLEDPAIANDDNFGPVKKKFCTFREDYDDISNQIDFIICLGGDGTLLYASSLFQGSVPPVMAFHLGSLGFLTPFNFENFQSQVTQVIEGNAALVLRSRLKVKVVKEHREKTTVQNGIEENGVVSANIEKEVGKQIMQYQVLNEVVVDRGPSSYLSNVDVFLNGHLITTVQGDGVIVSTPTGSTAYAAAAGASMIHPNVPAIMITPICPHSLSFRPIVVPAGVELKIMLSPDARNTAWVSFDGRKRQEICHGDSISITTSCYPLPSICFRDPVSDWFESLAECLHWNVRKKQNNFAVEEEEF
**Q.** Which Km [2] does the source give for B1 here?
**A.** 27000 ± 10000 µM

**Q.** What about the Km [3] of the same molecule?
**A.** 730 ± 160 µM

**Q.** What about the kcat [3] of the same molecule?
**A.** 0.145 ± 0.06 s⁻¹

B2: C. boidinii formate dehydrogenase (FDH), recombinant ([Candida] boidinii) (protein)
chain: MKIVLVLYDAGKHAADEEKLYGCTENKLGIANWLKDQGHELITTSDKEGETSELDKHIPDADIIITTPFHPAYITKERLDKAKNLKLVVVAGVGSDHIDLDYINQTGKKISVLEVTGSNVVSVAEHVVMTMLVLVRNFVPAHEQIINHDWEVAAIAKDAYDIEGKTIATIGAGRIGYRVLERLLPFNPKELLYYDYQALPKEAEEKVGARRVENIEELVAQADIVTVNAPLHAGTKGLINKELLSKFKKGAWLVNTARGAICVAEDVAAALESGQLRGYGGDVWFPQPAPKDHPWRDMRNKYGAGNAMTPHYSGTTLDAQTRYAEGTKNILESFFTGKFDYRPQDIILLNGEYVTKAYGKHDKK
notes: made in house; host or cells: E. coli BL21(DE3)
**Q.** Which results are given for B2?
**A.** Km [4]: 4000 ± 60 µM; Km [5]: 30 ± 2 µM; kcat [5]: (3.4 ± 0.1) × 10^2 min^−1

B3: B. subtilis polyphosphate NAD+ kinase (PPNK), recombinant, 6x-histidine tag (Bacillus subtilis subsp. subtilis str. 168) (protein)
chain: MKFAVSSKGDQVSDTLKSKIQAYLLDFDMELDENEPEIVISVGGDGTLLYAFHRYSDRLDKTAFVGVHTGHLGFYADWVPHEIEKLVLAIAKTPYHTVEYPLLEVIVTYHENEREERYLALNECTIKSIEGSLVADVEIKGQLFETFRGDGLCLSTPSGSTAYNKALGGAIIHPSIRAIQLAEMASINNRVFRTVGSPLLLPSHHDCMIKPRNEVDFQVTIDHLTLLHKDVKSIRCQVASEKVRFARFRPFPFWKRVQDSFIGKGE
**Q.** What does the source list for B3?
**A.** Km [6]: 1400 ± 1110 µM; Km ([7]; other: cosubstrate ATP): 1700 ± 1400 µM; Km ([7]; other: cosubstrate poly(P) (sodium metaphosphate)): 1200 ± 600 µM

B4: human NADK: cloned human ATP-NAD^+ kinase with C-terminal 6×-histidine tag (protein, UniProt O95544 1-446, looked up)
NAD kinase: MEMEQEKMTMNKELSPDAAAYCCSACHGDETWSYNHPIRGRAKSRSLSASPALGSTKEFRRTRSLHGPCPVTTFGPKACVLQNPQTIMHIQDPASQRLTWNKSPKSVLVIKKMRDASLLQPFKELCTHLMEENMIVYVEKKVLEDPAIASDESFGAVKKKFCTFREDYDDISNQIDFIICLGGDGTLLYASSLFQGSVPPVMAFHLGSLGFLTPFSFENFQSQVTQVIEGNAAVVLRSRLKVRVVKELRGKKTAVHNGLGENGSQAAGLDMDVGKQAMQYQVLNEVVIDRGPSSYLSNVDVYLDGHLITTVQGDGVIVSTPTGSTAYAAAAGASMIHPNVPAIMITPICPHSLSFRPIVVPAGVELKIMLSPEARNTAWVSFDGRKRQEIRHGDSISITTSCYPLPSICVRDPVSDWFESLAQCLHWNVRKKQAHFEEEEEEEEEG
**Q.** With B4 as the molecule, how does the “reverse NADK activity” value (NADK) read?
**A.** no measurable activity in the reverse direction

Reference: US20240318218A1 (The Trustees of Columbia University in The City of New York, priority 2023, published 2024)
